Test system: murine SOD1 mRNA
Assay: siRNA biodistribution and SOD1 mRNA by in situ hybridization (miRNAScope / RNAScope)
Assay type: in vivo, C57Bl/6 mice
Settings: single ICV dose 100 µg, seven days
Procedure: For ISH bioanalysis, 20 µm sagittal cryosections of left brain hemispheres or coronal sections of spinal cords were prepared using a cryostat at -20°C (Leica), collected onto superfrost plus slides and stored at - 80°C until processing. For RNAScope® or miRNAScope® assays, slides containing cyosections were immediately transferred and fixed in 10% Neutral buffered formalin (NBF) for 1h30 at RT. Fluorescent RNAscope® assay for mRNAs detection or chromogenic miRNAscope® assay for siRNA detection were performed according to the manufacter's protocols (Advanced Cell Diagnostics, ACD). […] This distribution correlates with a broad and potent SOD1 mRNA knock-down, as assessed using RNAScope® (Figure 29B and 29E, right panels). […]
For ISH bioanalysis, 20 µm sagittal cryosections of left brain hemispheres or coronal sections of spinal cords were prepared using a cryostat at -20°C (Leica), collected onto superfrost plus slides and stored at - 80°C until processing. […] This distribution correlates with a broad TfR-dependent and potent SOD1 mRNA knock-down, as assessed using RNAScope® (Figure 31C and 31I, right panels).
An example of cleavable linker was evaluated and compared to the C5-hFc-siSOD1m-5'VP for its biodistribution in CNS tissues following systemic administration. […]

B1: C5-siSOD1m-5'VP: TfR-binding VHH-siRNA conjugate wherein VHH is C5 (conjugate)
VHH: EVQLVESGGGVVQPGGSLKLSCVASGTDFSINFIRWYRQAPGKQREFVAGFTATGNTNYADSMKGRFTISRDNTKNAVYLQIDSLKPEDTAVYYCYMLDKWGQGTQVTVSSAAAEQKLISEEDLNGAAHHHHHHGS
biodistribution of the siSOD1m AS strand in brain and spinal cord: broad biodistribution
